Reference: patent US20240383990A1 (DIAGONAL THERAPEUTICS, published 2024)
Like-named read-outs stand apart in the source and are kept apart here. Each block holds one binder with its values, some of them ahead of it.

Experiments:
Test in all cases: cell-based or functional assay
[1] = target: T1, ALK1 / BMPRII receptor pair (BMPR Type I receptor ALK1 and BMPR Type II receptor BMPRII) on cells (UniProt P37023 22-503; Q13873 27-1038, limits assumed)
[2] = target: T1, ALK1 / BMPRII receptor pair (BMPR Type …); remark: listed apart in the source
[3] = target: T1, ALK1 / BMPRII receptor pair (BMPR Type …); remark: listed apart in the source
[4] = target: T2, IL-18 receptor (IL-18Rα and IL-18Rβ) on HEK-Blue IL-18 cells (UniProt Q13478 19-541; O95256 20-599, limits assumed)
T2 sequence (looked up) 1: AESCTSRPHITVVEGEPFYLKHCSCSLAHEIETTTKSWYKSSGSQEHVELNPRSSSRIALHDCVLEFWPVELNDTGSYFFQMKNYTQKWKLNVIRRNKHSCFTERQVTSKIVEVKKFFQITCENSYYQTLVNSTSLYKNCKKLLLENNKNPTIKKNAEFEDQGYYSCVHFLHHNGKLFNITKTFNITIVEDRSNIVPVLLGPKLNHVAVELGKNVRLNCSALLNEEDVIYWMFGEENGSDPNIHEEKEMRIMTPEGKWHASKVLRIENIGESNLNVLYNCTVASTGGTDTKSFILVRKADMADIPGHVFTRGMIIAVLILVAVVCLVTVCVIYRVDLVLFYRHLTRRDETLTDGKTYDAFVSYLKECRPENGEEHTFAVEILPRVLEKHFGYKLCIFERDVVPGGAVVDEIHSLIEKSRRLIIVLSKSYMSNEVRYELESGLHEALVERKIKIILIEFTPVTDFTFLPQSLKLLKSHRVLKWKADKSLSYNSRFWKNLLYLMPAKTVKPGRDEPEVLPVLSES
T2 sequence (looked up) 2: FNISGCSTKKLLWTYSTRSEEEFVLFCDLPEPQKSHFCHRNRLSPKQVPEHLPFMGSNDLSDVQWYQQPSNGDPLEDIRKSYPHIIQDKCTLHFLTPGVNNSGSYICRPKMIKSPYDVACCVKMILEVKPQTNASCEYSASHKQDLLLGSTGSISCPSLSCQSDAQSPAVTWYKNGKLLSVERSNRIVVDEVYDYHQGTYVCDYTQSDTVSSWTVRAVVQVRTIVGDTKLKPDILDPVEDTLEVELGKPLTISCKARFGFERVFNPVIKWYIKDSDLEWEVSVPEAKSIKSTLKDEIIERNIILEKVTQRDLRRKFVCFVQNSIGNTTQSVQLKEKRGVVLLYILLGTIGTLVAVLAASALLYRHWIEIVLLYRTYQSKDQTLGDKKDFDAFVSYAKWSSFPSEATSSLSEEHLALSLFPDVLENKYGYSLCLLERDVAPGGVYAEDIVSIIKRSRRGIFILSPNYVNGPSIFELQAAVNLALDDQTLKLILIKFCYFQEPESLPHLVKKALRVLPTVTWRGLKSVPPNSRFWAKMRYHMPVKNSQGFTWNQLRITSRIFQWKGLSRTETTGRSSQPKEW

T1 sequence (P37023 22-503 limits assumed, chain 1 of 2): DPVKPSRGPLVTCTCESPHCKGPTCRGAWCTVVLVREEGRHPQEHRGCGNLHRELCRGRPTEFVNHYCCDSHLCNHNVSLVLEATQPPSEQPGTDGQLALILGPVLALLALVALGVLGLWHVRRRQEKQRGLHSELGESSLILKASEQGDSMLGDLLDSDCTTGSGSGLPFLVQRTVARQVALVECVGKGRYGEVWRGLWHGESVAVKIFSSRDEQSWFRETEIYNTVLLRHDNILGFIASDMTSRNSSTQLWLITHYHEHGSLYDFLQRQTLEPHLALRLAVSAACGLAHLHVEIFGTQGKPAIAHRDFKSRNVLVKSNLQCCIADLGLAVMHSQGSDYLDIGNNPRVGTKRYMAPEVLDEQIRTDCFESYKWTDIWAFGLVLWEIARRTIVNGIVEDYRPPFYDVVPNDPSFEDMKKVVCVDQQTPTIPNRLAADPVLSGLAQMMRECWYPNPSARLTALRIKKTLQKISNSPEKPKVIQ
T1 sequence (Q13873 27-1038 limits assumed, chain 2 of 2): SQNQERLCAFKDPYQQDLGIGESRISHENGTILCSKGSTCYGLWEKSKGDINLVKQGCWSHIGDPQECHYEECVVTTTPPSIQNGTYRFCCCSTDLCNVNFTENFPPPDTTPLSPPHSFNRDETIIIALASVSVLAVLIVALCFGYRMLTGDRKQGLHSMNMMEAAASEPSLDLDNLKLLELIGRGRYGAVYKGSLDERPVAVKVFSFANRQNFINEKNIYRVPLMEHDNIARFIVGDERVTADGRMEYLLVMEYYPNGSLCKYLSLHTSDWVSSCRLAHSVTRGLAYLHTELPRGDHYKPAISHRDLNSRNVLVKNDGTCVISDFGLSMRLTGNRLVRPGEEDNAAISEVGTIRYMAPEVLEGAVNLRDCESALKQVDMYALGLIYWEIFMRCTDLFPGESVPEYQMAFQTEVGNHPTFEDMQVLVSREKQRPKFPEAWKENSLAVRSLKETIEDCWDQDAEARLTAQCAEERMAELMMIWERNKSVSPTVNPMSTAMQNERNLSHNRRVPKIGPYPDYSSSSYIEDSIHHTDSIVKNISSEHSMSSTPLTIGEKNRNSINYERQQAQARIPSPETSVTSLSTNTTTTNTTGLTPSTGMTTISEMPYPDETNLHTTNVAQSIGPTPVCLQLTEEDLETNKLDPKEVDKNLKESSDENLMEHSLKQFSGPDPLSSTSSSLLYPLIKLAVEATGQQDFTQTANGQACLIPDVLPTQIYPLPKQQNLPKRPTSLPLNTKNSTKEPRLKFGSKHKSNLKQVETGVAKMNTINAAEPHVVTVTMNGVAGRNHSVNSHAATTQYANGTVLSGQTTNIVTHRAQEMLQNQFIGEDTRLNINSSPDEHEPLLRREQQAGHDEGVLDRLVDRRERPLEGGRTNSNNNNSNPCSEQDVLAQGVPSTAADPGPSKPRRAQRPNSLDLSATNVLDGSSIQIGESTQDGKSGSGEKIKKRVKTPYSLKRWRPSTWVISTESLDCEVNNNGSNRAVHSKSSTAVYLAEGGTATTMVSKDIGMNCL

B3: DGL288 (bispecific antibody)
chain: EVQLLESGGGLVQPGGSLRLSCAASGFTFSDYYMTWIRQAPGKGLEWVSSISGGSTYYADSRKGRFTISRDNSENTLYLQMNSLRAEDTAVYYCARDFGVAGWFGQYGMDVWGQGTLVTVSSGGGGSGGGGSGGGGSQSVLTQPPSASGTPGQRVTISCTGSSSNIGAGYDVHWYQQLPGTAPKLLIYRSNQRPSGVPDRFSGSKSGTSASLAISGLRSEDEADYYCSSYAGNYNLVFGGGTKLTVLDKGPSVFPLAPEPKSSEVQLLESGGGLVQPGGSLRLSCAASGFTFSSYAMSWVRQAPGKGLEWVANINQDGSEKNYVDSMRGRFTISRDNSKNTLYLQMNSLRAEDTAVYYCAREFDYWGQGTLVTVTSSGGGGSGGGGSGGGGSQSVLAQPPSASGTPGQRVTISCSGSSSNIGSNYVYWYQQLPGTAPKLLIYGNNKRPSGVPDRFSGSKSGTSASLAISGLRSEDEADYYCAAWDDSLNGRVFGGGTKLTVLDKTHTCPPCPAPEAAGAPSVFLFPPKPKDTLMISRTPEVTCVVVDVSHEDPEVKFNWYVDGVEVHNAKTKPREEQYNSTYRVVSVLTVLHQDWLNGKEYKCKVSNKALPAPIEKTISKAKGQPREPQVYTLPPSRDELTKNQVSLTCLVKGFYPSDIAVEWESNGQPENNYKTTPPVLDSDGSFFLYSKLTVDKSRWQQGNVFSCSVMHEALHNHYTQKSLSLSPG
pSMAD1 ELISA in HUVEC, RLU 15 minutes, at 0 nM (baseline) [3]: 4.5 RLU
pSMAD1 ELISA in HUVEC, RLU 15 minutes, at 0.4 nM [3]: 4.9 RLU
pSMAD1 ELISA in HUVEC, RLU 15 minutes, at 2 nM [3]: 6.5 RLU
pSMAD1 ELISA in HUVEC, RLU 15 minutes, at 10 nM [3]: 6.7 RLU
pSMAD1 ELISA in HUVEC, RLU 60 minutes, at 0 nM (baseline) [3]: 4.5 RLU
pSMAD1 ELISA in HUVEC, RLU 60 minutes, at 0.4 nM [3]: 35 RLU
pSMAD1 ELISA in HUVEC, RLU 60 minutes, at 2 nM [3]: 26.9 RLU
pSMAD1 ELISA in HUVEC, RLU 60 minutes, at 10 nM [3]: 22.7 RLU
Agonist activity, % Emax BMP9 [1]: 76 % Emax BMP9
Agonist activity, EC50 [1]: 70 pM
Agonist activity, EMAX (RLU) [1]: 2e+06 RLU
Agonist activity, % Emax BMP9 [2]: 76 % Emax BMP9
Agonist activity, EC50 [2]: 70 pM
Agonist activity, EMAX (RLU) [2]: 2e+06 RLU

B4: PRO004 (bispecific antibody)
chain: EVQLLESGGGLVQPGGSLRLSCAASGFTFSNAWMNWVRQAPGKGLEWVSSISSSSSYIYYADSVKGRFTISRDNSKNTLYLQMNSLRAEDTAVYYCARAVAAGGMFWGLDQWGQGTLVTVTSSGGGGSGGGGSGGGGSQSVLTQPPSASGTPGQRVTISCSGSRSNIGSNSVHWYQQLPGTAPKLLIYGNSNRPSGVPDRFSGSKSGTSASLAISGLRSEDEADYYCQSYDSSLNDHVVFGGGTKLTVLDKTHTCPPCPAPEAAGAPSVFLFPPKPKDTLMISRTPEVTCVVVDVSHEDPEVKFNWYVDGVEVHNAKTKPREEQYNSTYRVVSVLTVLHQDWLNGKEYKCKVSNKALPAPIEKTISKAKGQPREPQVYTLPPSRDELTKNQVSLTCLVKGFYPSDIAVEWESNGQPENNYKTTPPVLDSDGSFFLYSKLTVDKSRWQQGNVFSCSVMHEALHNHYTQKSLSLSPGGGGGSGGGGSEVQLLESGGGLVQPGGSLRLSCAASGFTFSIYAMSWVRQAPGKGLEWVSAISGSGGSTYYADSVKGRFTISRDNSKNTLYLQMNSLRAEDTAVYYCARDFDYWGQGTLVTVTSSGGGGSGGGGSGGGGSQSVLTQPPSASGTPGQRVTISCSGSSSNIGSNYVYWYQQLPGTAPKLLIYGNINRPSGVPDRFSGSKSGTSASLAISGLRSEDEADYYCAAWDDSLNGRVFGGGTKLTVL
Agonist activity, % Emax BMP9 [1]: 46 % Emax BMP9
Agonist activity, EC50 [1]: 500 pM
Agonist activity, EMAX (RLU) [1]: 1.21e+06 RLU
Agonist activity, % Emax BMP9 [2]: 46 % Emax BMP9
Agonist activity, EC50 [2]: 500 pM
Agonist activity, EMAX (RLU) [2]: 1.21e+06 RLU

B5: PRO003 (bispecific antibody)
chain: EVQLLESGGGLVQPGGSLRLSCAASGFTFSIYAMSWVRQAPGKGLEWVSAISGSGGSTYYADSVKGRFTISRDNSKNTLYLQMNSLRAEDTAVYYCARDFDYWGQGTLVTVTSSGGGGSGGGGSGGGGSQSVLTQPPSASGTPGQRVTISCSGSSSNIGSNYVYWYQQLPGTAPKLLIYGNINRPSGVPDRFSGSKSGTSASLAISGLRSEDEADYYCAAWDDSLNGRVFGGGTKLTVLDKTHTCPPCPAPEAAGAPSVFLFPPKPKDTLMISRTPEVTCVVVDVSHEDPEVKFNWYVDGVEVHNAKTKPREEQYNSTYRVVSVLTVLHQDWLNGKEYKCKVSNKALPAPIEKTISKAKGQPREPQVYTLPPSRDELTKNQVSLTCLVKGFYPSDIAVEWESNGQPENNYKTTPPVLDSDGSFFLYSKLTVDKSRWQQGNVFSCSVMHEALHNHYTQKSLSLSPGGGGGSGGGGSEVQLLESGGGLVQPGGSLRLSCAASGFTFSNAWMNWVRQAPGKGLEWVSSISSSSSYIYYADSVKGRFTISRDNSKNTLYLQMNSLRAEDTAVYYCARAVAAGGMFWGLDQWGQGTLVTVTSSGGGGSGGGGSGGGGSQSVLTQPPSASGTPGQRVTISCSGSRSNIGSNSVHWYQQLPGTAPKLLIYGNSNRPSGVPDRFSGSKSGTSASLAISGLRSEDEADYYCQSYDSSLNDHVVFGGGTKLTVL
Agonist activity, % Emax BMP9 [1]: 47 % Emax BMP9
Agonist activity, EC50 [1]: 100 pM
Agonist activity, EMAX (RLU) [1]: 1.25e+06 RLU
Agonist activity, % Emax BMP9 [2]: 47 % Emax BMP9
Agonist activity, EC50 [2]: 100 pM
Agonist activity, EMAX (RLU) [2]: 1.25e+06 RLU

B6: DGL208 (bispecific antibody)
chain 1: QVQLVESGGGLVQAGGSLRLSCAASGRTFSKHAMGWFRQAPGKEREFVAAIDWSGGSTYYADSVKGRFTISRDNAKNTVYLQMDSLKPEDTAVYYCAADSYTDYAQLWLPELESEYDYWGQGTLVTVSSPLAPDKTHTCPPCPAPEAAGAPSVFLFPPKPKDTLMISRTPEVTCVVVDVSHEDPEVKFNWYVDGVEVHNAKTKPREEQYNSTYRVVSVLTVLHQDWLNGKEYKCKVSNKALPAPIEKTISKAKGQPREPQVCTLPPSRDELTKNQVSLSCAVKGFYPSDIAVEWESNGQPENNYKTTPPVLDSDGSFFLVSKLTVDKSRWQQGNVFSCSVMHEALHNHYTQKSLSLSPGWSHPQFEK
chain 2: not shown
HEK-Blue assay, % human IL-18 [4]: 44 % of human IL18 activity

The remaining lines, values ahead:

Agonist activity, % Emax BMP9 [1]: 35 % Emax BMP9
Agonist activity, EC50 [1]: 75 pM
Agonist activity, EMAX (RLU) [1]: 931000 RLU
Agonist activity, % Emax BMP9 [2]: 35 % Emax BMP9
Agonist activity, EC50 [2]: 75 pM
Agonist activity, EMAX (RLU) [2]: 931000 RLU
B1: PRO005 (bispecific antibody)
chain: EVQLLESGGGLVQPGGSLRLSCAASGFTFSSYAMSWVRQAPGKGLEWVANINQDGSEKNYVDSMRGRFTISRDNSKNTLYLQMNSLRAEDTAVYYCAREFDYWGQGTLVTVTSSGGGGSGGGGSGGGGSQSVLAQPPSASGTPGQRVTISCSGSSSNIGSNYVYWYQQLPGTAPKLLIYGNNKRPSGVPDRFSGSKSGTSASLAISGLRSEDEADYYCAAWDDSLNGRVFGGGTKLTVLDKTHTCPPCPAPEAAGAPSVFLFPPKPKDTLMISRTPEVTCVVVDVSHEDPEVKFNWYVDGVEVHNAKTKPREEQYNSTYRVVSVLTVLHQDWLNGKEYKCKVSNKALPAPIEKTISKAKGQPREPQVYTLPPSRDELTKNQVSLTCLVKGFYPSDIAVEWESNGQPENNYKTTPPVLDSDGSFFLYSKLTVDKSRWQQGNVFSCSVMHEALHNHYTQKSLSLSPGGGGGSGGGGSEVQLLESGGGLVQPGGSLRLSCAASGFTFSDYYMTWIRQAPGKGLEWVSSISGGSTYYADSRKGRFTISRDNSENTLYLQMNSLRAEDTAVYYCARDFGVAGWFGQYGMDVWGQGTLVTVSSGGGGSGGGGSGGGGSQSVLTQPPSASGTPGQRVTISCTGSSSNIGAGYDVHWYQQLPGTAPKLLIYRSNQRPSGVPDRFSGSKSGTSASLAISGLRSEDEADYYCSSYAGNYNLVFGGGTKLTVL

Agonist activity, % Emax BMP9 [1]: 35 % Emax BMP9
Agonist activity, EC50 [1]: 100 pM
Agonist activity, EMAX (RLU) [1]: 929000 RLU
Agonist activity, % Emax BMP9 [2]: 35 % Emax BMP9
Agonist activity, EC50 [2]: 100 pM
Agonist activity, EMAX (RLU) [2]: 929000 RLU
B2: PRO006 (bispecific antibody)
chain: EVQLLESGGGLVQPGGSLRLSCAASGFTFSDYYMTWIRQAPGKGLEWVSSISGGSTYYADSRKGRFTISRDNSENTLYLQMNSLRAEDTAVYYCARDFGVAGWFGQYGMDVWGQGTLVTVSSGGGGSGGGGSGGGGSQSVLTQPPSASGTPGQRVTISCTGSSSNIGAGYDVHWYQQLPGTAPKLLIYRSNQRPSGVPDRFSGSKSGTSASLAISGLRSEDEADYYCSSYAGNYNLVFGGGTKLTVLDKTHTCPPCPAPEAAGAPSVFLFPPKPKDTLMISRTPEVTCVVVDVSHEDPEVKFNWYVDGVEVHNAKTKPREEQYNSTYRVVSVLTVLHQDWLNGKEYKCKVSNKALPAPIEKTISKAKGQPREPQVYTLPPSRDELTKNQVSLTCLVKGFYPSDIAVEWESNGQPENNYKTTPPVLDSDGSFFLYSKLTVDKSRWQQGNVFSCSVMHEALHNHYTQKSLSLSPGGGGGSGGGGSEVQLLESGGGLVQPGGSLRLSCAASGFTFSSYAMSWVRQAPGKGLEWVANINQDGSEKNYVDSMRGRFTISRDNSKNTLYLQMNSLRAEDTAVYYCAREFDYWGQGTLVTVTSSGGGGSGGGGSGGGGSQSVLAQPPSASGTPGQRVTISCSGSSSNIGSNYVYWYQQLPGTAPKLLIYGNNKRPSGVPDRFSGSKSGTSASLAISGLRSEDEADYYCAAWDDSLNGRVFGGGTKLTVL
